In experiment [1] the target is Recombinant hSIRPg-His (Sino Biologicals, reference 11828-H08H) (human) (UniProt Q9P1W8). The experiment can be described thus: Blitz (BLI); SIRPg pre-incubated with Kwar23. As to conditions: Fc fusion.
Experiment [2] has the same target. Description: Blitz (BLI); SIRPg pre-incubated with SIRP29. As to conditions: Fc fusion.
The target is the same in experiment [3]. The experiment can be described thus: Blitz (BLI); no antibody. Particulars: Fc fusion.
In experiment [4] the target is hSIRPa-His recombinant protein (Sino Biologicals, reference 11612-H08H) (human) (UniProt P78324). The experiment can be described thus: Biacore (SPR).

Among the data in US20190382483A1 are Kd values, retold here.

Recombinant hSIRPg-His (Sino Biologicals, reference 11828-H08H) (human), sequence (Q9P1W8 29-360): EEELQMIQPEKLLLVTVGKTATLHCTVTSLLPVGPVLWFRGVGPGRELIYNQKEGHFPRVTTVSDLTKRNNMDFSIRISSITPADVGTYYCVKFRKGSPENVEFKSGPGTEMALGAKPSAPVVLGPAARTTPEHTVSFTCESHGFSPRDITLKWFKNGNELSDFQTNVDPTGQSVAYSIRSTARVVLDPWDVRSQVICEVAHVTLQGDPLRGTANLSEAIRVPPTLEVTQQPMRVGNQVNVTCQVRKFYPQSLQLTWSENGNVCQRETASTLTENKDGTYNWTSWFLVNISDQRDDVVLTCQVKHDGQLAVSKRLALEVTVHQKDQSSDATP
human CD47Fc (Sino Biologicals, reference 12283-H02H), sequence (Q08722 19-139): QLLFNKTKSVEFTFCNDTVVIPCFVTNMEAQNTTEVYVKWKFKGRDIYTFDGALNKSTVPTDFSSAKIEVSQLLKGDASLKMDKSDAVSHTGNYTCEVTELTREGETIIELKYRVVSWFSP
hSIRPa-His recombinant protein (Sino Biologicals, reference 11612-H08H) (human), sequence (P78324 31-370): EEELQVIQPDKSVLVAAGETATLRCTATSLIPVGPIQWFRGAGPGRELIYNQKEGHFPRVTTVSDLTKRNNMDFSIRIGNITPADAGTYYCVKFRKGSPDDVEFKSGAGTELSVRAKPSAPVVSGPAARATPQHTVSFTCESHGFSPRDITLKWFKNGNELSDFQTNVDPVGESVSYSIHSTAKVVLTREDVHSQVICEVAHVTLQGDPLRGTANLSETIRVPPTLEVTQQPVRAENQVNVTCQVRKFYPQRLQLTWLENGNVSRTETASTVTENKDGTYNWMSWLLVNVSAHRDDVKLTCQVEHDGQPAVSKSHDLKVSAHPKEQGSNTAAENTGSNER

Regarding “human CD47Fc (Sino Biologicals, reference 12283-H02H) (from UniProt Q08722 19-139)”, the Kd in experiment [1] was 288 µM; in experiment [2], 2.57 µM; in experiment [3] it was 0.597 µM.
Regarding Kwar23, in experiment [4], the Kd stood at 0.000367 µM.
